# T1: His6–Scs2(1–127) (S. pombe, UniProt O60119 1-127)
# T1 construct: Scs2 (VAMP-associated protein, VAP), S. pombe, residues 1-127 (MSP domain), amplified from genomic DNA and cloned into pET15b; Cloned into the NdeI and BamHI sites of pET15b; also called Scs2 MSP domain; His-tagged version of the Scs2 MSP domain
# T1 sequence (looked up): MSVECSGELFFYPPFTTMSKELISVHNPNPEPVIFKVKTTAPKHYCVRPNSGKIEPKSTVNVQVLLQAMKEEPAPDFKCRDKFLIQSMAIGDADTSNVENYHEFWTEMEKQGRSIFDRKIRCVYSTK
# T2: His6–Scs2(1–127) (Schizosaccharomyces pombe (strain 972 / …, UniProt O60119))
# T2 chain: T1 sequence (looked up)
# Tests used:
# His6–Scs2(1–127) [1] = biological target: T1, His6–Scs2(1–127); assay: pull-down; bead-bound His6–Scs2(1–127) (2–3 µg) incubated with 10 µg GST or GST–Duc1(351–380) in 500 µl 20 mM Tris-HCl pH 7.4, 150 mM NaCl, 0.1% NP-40, 30 min at 4°C; three washes; SDS-PAGE, Coomassie blue; conditions: both partners purified
# His6–Scs2(1–127) [2] = biological target: T2, His6–Scs2(1–127); assay: pull-down (bead-bound His6-Scs2, Coomassie SDS-PAGE)
binder,measurement,setting,value
"GKDVYKHGISNVPDDENEDDLQRYFTALEM (domain or fragment, S. pombe, UniProt O74504 351-380, looked up) [GST–Duc1(351–380)]",binding result,His6–Scs2(1–127) [1],binds
same,binding result,His6–Scs2(1–127) [2],binds

# Source: PMC11449445, “Fission yeast Duc1 links to ER–PM contact sites and influences PM lipid composition and cytokinetic ring anchoring” (Journal of Cell Science, 2024)
